Source: patent publication US20140213531A1 (POLYPHOR, published 2014)
Bridges are numbered along the chain shown (N, C = ends). [ ]: non-standard residue; d: D form. Pro(5R-Ph) = O=C(O)[C@@H]1CC[C@H](c2ccccc2)N1

B1: Example 55 (peptide)
peptide: ICTKSDPPQCR
HELM: PEPTIDE1{I.C.T.K.S.D.P.P.Q.C.R.[dP].P}$PEPTIDE1,PEPTIDE1,2:R3-10:R3|PEPTIDE1,PEPTIDE1,1:R1-13:R2$$$V2.0
SMILES: CC[C@H](C)[C@@H]1NC(=O)[C@@H]2CCCN2C(=O)[C@H]2CCCN2C(=O)[C@H](CCCNC(=N)N)NC(=O)[C@@H]2CSSC[C@H](NC1=O)C(=O)N[C@@H]([C@@H](C)O)C(=O)N[C@@H](CCCCN)C(=O)N[C@@H](CO)C(=O)N[C@@H](CC(=O)O)C(=O)N1CCC[C@H]1C(=O)N1CCC[C@H]1C(=O)N[C@@H](CCC(N)=O)C(=O)N2
B2: Example 11 (peptide)
peptide: XCTKSDPPICS
HELM: PEPTIDE1{[O=C([C@@H](N[*:1])C1CCCCC1)[*:2]].C.T.K.S.D.P.P.I.C.S.[dP].P}$PEPTIDE1,PEPTIDE1,2:R3-10:R3|PEPTIDE1,PEPTIDE1,1:R1-13:R2$$$V2.0
SMILES: CC[C@H](C)[C@@H]1NC(=O)[C@@H]2CCCN2C(=O)[C@@H]2CCCN2C(=O)[C@H](CC(=O)O)NC(=O)[C@H](CO)NC(=O)[C@H](CCCCN)NC(=O)[C@H]([C@@H](C)O)NC(=O)[C@@H]2CSSC[C@H](NC1=O)C(=O)N[C@@H](CO)C(=O)N1CCC[C@@H]1C(=O)N1CCC[C@H]1C(=O)N[C@@H](C1CCCCC1)C(=O)N2
B3: Example 8 (peptide)
peptide: RXTKSDPPIXF
HELM: PEPTIDE1{R.[Nle].T.K.S.D.P.P.I.[Nle].F.[dP].P}$PEPTIDE1,PEPTIDE1,1:R1-13:R2$$$V2.0
SMILES: CCCC[C@@H]1NC(=O)[C@H](CCCNC(=N)N)NC(=O)[C@@H]2CCCN2C(=O)[C@H]2CCCN2C(=O)[C@H](Cc2ccccc2)NC(=O)[C@H](CCCC)NC(=O)[C@H]([C@@H](C)CC)NC(=O)[C@@H]2CCCN2C(=O)[C@@H]2CCCN2C(=O)[C@H](CC(=O)O)NC(=O)[C@H](CO)NC(=O)[C@H](CCCCN)NC(=O)[C@H]([C@@H](C)O)NC1=O
B4: Example 50 (peptide)
peptide: FCTKSDPPICS
HELM: PEPTIDE1{F.C.T.K.S.D.P.P.I.C.S.[dI].P}$PEPTIDE1,PEPTIDE1,2:R3-10:R3|PEPTIDE1,PEPTIDE1,1:R1-13:R2$$$V2.0
SMILES: CC[C@@H](C)[C@H]1NC(=O)[C@H](CO)NC(=O)[C@@H]2CSSC[C@H](NC(=O)[C@H](Cc3ccccc3)NC(=O)[C@@H]3CCCN3C1=O)C(=O)N[C@@H]([C@@H](C)O)C(=O)N[C@@H](CCCCN)C(=O)N[C@@H](CO)C(=O)N[C@@H](CC(=O)O)C(=O)N1CCC[C@H]1C(=O)N1CCC[C@H]1C(=O)N[C@@H]([C@@H](C)CC)C(=O)N2
B5: Example 36 (peptide)
peptide: XCTKSDPPICY
HELM: PEPTIDE1{[Cha].C.T.K.S.D.P.P.I.C.Y.[dP].P}$PEPTIDE1,PEPTIDE1,2:R3-10:R3|PEPTIDE1,PEPTIDE1,1:R1-13:R2$$$V2.0
SMILES: CC[C@H](C)[C@@H]1NC(=O)[C@@H]2CCCN2C(=O)[C@@H]2CCCN2C(=O)[C@H](CC(=O)O)NC(=O)[C@H](CO)NC(=O)[C@H](CCCCN)NC(=O)[C@H]([C@@H](C)O)NC(=O)[C@@H]2CSSC[C@H](NC1=O)C(=O)N[C@@H](Cc1ccc(O)cc1)C(=O)N1CCC[C@@H]1C(=O)N1CCC[C@H]1C(=O)N[C@@H](CC1CCCCC1)C(=O)N2
B6: Example 16 (peptide)
peptide: FCTKSDPPXCS
HELM: PEPTIDE1{F.C.T.K.S.D.P.P.[Cha].C.S.[dP].P}$PEPTIDE1,PEPTIDE1,2:R3-10:R3|PEPTIDE1,PEPTIDE1,1:R1-13:R2$$$V2.0
SMILES: C[C@@H](O)[C@@H]1NC(=O)[C@@H]2CSSC[C@H](NC(=O)[C@H](CC3CCCCC3)NC(=O)[C@@H]3CCCN3C(=O)[C@@H]3CCCN3C(=O)[C@H](CC(=O)O)NC(=O)[C@H](CO)NC(=O)[C@H](CCCCN)NC1=O)C(=O)N[C@@H](CO)C(=O)N1CCC[C@@H]1C(=O)N1CCC[C@H]1C(=O)N[C@@H](Cc1ccccc1)C(=O)N2
B7: Example 54 (peptide)
peptide: FCTKSDPPXCS
HELM: PEPTIDE1{F.C.T.K.S.D.P.P.[Cha].C.S.[dP].P}$PEPTIDE1,PEPTIDE1,2:R3-10:R3|PEPTIDE1,PEPTIDE1,1:R1-13:R2$$$V2.0
SMILES: C[C@@H](O)[C@@H]1NC(=O)[C@@H]2CSSC[C@H](NC(=O)[C@H](CC3CCCCC3)NC(=O)[C@@H]3CCCN3C(=O)[C@@H]3CCCN3C(=O)[C@H](CC(=O)O)NC(=O)[C@H](CO)NC(=O)[C@H](CCCCN)NC1=O)C(=O)N[C@@H](CO)C(=O)N1CCC[C@@H]1C(=O)N1CCC[C@H]1C(=O)N[C@@H](Cc1ccccc1)C(=O)N2
B8: Example 21 (peptide)
peptide: FCTKSEPPICS
HELM: PEPTIDE1{F.C.T.K.S.E.P.P.I.C.S.[dP].P}$PEPTIDE1,PEPTIDE1,2:R3-10:R3|PEPTIDE1,PEPTIDE1,1:R1-13:R2$$$V2.0
SMILES: CC[C@H](C)[C@@H]1NC(=O)[C@@H]2CCCN2C(=O)[C@@H]2CCCN2C(=O)[C@H](CCC(=O)O)NC(=O)[C@H](CO)NC(=O)[C@H](CCCCN)NC(=O)[C@H]([C@@H](C)O)NC(=O)[C@@H]2CSSC[C@H](NC1=O)C(=O)N[C@@H](CO)C(=O)N1CCC[C@@H]1C(=O)N1CCC[C@H]1C(=O)N[C@@H](Cc1ccccc1)C(=O)N2
B9: Example 15 (peptide)
peptide: FCTKSDPPXCS
HELM: PEPTIDE1{F.C.T.K.S.D.P.P.[Nle].C.S.[dP].P}$PEPTIDE1,PEPTIDE1,2:R3-10:R3|PEPTIDE1,PEPTIDE1,1:R1-13:R2$$$V2.0
SMILES: CCCC[C@@H]1NC(=O)[C@@H]2CCCN2C(=O)[C@@H]2CCCN2C(=O)[C@H](CC(=O)O)NC(=O)[C@H](CO)NC(=O)[C@H](CCCCN)NC(=O)[C@H]([C@@H](C)O)NC(=O)[C@@H]2CSSC[C@H](NC1=O)C(=O)N[C@@H](CO)C(=O)N1CCC[C@@H]1C(=O)N1CCC[C@H]1C(=O)N[C@@H](Cc1ccccc1)C(=O)N2
B10: Example 73 (peptide)
peptide: FCTKSDPPICS
HELM: PEPTIDE1{F.C.T.K.S.D.P.P.I.C.S.[dI].P}$PEPTIDE1,PEPTIDE1,2:R3-10:R3|PEPTIDE1,PEPTIDE1,1:R1-13:R2$$$V2.0
SMILES: CC[C@@H](C)[C@H]1NC(=O)[C@H](CO)NC(=O)[C@@H]2CSSC[C@H](NC(=O)[C@H](Cc3ccccc3)NC(=O)[C@@H]3CCCN3C1=O)C(=O)N[C@@H]([C@@H](C)O)C(=O)N[C@@H](CCCCN)C(=O)N[C@@H](CO)C(=O)N[C@@H](CC(=O)O)C(=O)N1CCC[C@H]1C(=O)N1CCC[C@H]1C(=O)N[C@@H]([C@@H](C)CC)C(=O)N2

target: T1, CathepsinG, from human neutrophils (human, UniProt P08311 21-244); test: cell-based or functional assay
T1 sequence (looked up): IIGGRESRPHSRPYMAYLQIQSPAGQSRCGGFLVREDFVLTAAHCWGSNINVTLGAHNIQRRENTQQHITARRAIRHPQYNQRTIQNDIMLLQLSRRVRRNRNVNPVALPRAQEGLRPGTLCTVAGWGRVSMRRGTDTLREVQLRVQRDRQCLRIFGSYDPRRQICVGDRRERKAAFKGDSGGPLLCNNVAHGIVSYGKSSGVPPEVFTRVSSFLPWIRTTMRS

Row | Binder | IC50 [nmol]
1 | cyclo(FCTKSDPPICS[dP][Pro(5R-Ph)]) (disulfide 2-10) [Example 48] | 83
2 | B1 | 55
3 | B2 | 95
4 | B3 | 126
5 | B4 | 89
6 | B5 | 41
7 | B6 | 66
8 | B7 | 66
9 | B8 | 97
10 | B9 | 56
11 | B10 | 89

target: T2, Elastase from human neutrophils (human, UniProt P08246 30-247, limits assumed); test: cell-based or functional assay
T2 sequence (looked up): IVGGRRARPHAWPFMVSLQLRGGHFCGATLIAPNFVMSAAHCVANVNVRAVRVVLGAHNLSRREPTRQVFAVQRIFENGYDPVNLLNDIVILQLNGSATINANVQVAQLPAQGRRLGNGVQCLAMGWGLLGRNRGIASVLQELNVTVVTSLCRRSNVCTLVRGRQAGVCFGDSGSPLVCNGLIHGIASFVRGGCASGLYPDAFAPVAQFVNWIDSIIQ

Row | Binder | IC50 [nmol] | % inhibition at 100 µM [%]
12 | cyclo(FCTKSDPPICS[dP][Pro(5R-Ph)]) (disulfide 2-10) [Example 48] | > 100000 | 
13 | B1 | > 100000 | 
14 | B2 |  | 19
15 | B3 |  | 0.8
16 | B4 | > 100000 | 
17 | B6 | > 100000 | 
18 | B7 | > 100000 | 
19 | B8 | 16.4 | 
20 | B9 | > 100000 | 
21 | B10 | > 100000 | 

target: Trypsin, Iodination grade, from human pancreas (human, UniProt P07477 24-247); test: cell-based or functional assay

Row | Binder | % inhibition at 100 µM [%]
22 | cyclo(FCTKSDPPICS[dP][Pro(5R-Ph)]) (disulfide 2-10) [Example 48] | 93
23 | B1 | 90
24 | B2 | 6.5
25 | B3 | 74.2
26 | B4 | 94
27 | B6 | 90
28 | B7 | 90
29 | B8 | 95.6
30 | B9 | 95
31 | B10 | 94

target: Chymotrypsin, from human pancreas (human, UniProt P17538 19-263); test: cell-based or functional assay
Sequence (P17538 19-263): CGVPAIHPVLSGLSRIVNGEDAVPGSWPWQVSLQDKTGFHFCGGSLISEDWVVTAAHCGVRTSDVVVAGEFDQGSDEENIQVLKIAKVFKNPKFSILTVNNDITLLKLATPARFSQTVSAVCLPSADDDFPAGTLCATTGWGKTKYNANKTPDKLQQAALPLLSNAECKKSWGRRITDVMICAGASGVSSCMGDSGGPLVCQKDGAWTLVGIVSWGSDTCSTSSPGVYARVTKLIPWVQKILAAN

Row | Binder | % inhibition at 100 µM [%]
32 | cyclo(FCTKSDPPICS[dP][Pro(5R-Ph)]) (disulfide 2-10) [Example 48] | 3
33 | B1 | 16
34 | B2 | 73.6
35 | B3 | 5.6
36 | B4 | 0
37 | B8 | 2.6
38 | B10 | 0

target: T3, Chymase, from human skin (human, UniProt P23946 22-247); test: cell-based or functional assay
T3 sequence (looked up): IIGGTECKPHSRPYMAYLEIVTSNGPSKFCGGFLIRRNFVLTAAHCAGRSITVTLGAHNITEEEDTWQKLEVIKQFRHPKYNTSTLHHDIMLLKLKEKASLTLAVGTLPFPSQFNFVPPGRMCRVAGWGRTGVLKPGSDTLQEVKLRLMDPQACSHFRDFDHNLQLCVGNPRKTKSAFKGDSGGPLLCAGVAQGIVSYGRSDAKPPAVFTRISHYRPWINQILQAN

Row | Binder | % inhibition at 100 µM [%]
39 | B1 | 27.6
40 | B2 | 12.1
41 | B3 | 71.7
42 | B6 | 12.9
43 | B7 | 12.9
44 | B8 | 5
45 | B9 | 12.7

target: Urokinase from human urine (human, UniProt P00749 21-431, limits assumed); test: cell-based or functional assay

Row | Binder | % inhibition at 100 µM [%]
46 | B5 | 0
47 | B6 | 3.2
48 | B7 | 3.2

target: Tryptase, from human lung (human, UniProt Q15661 31-275, limits assumed); test: cell-based or functional assay
Sequence (Q15661 31-275 limits assumed): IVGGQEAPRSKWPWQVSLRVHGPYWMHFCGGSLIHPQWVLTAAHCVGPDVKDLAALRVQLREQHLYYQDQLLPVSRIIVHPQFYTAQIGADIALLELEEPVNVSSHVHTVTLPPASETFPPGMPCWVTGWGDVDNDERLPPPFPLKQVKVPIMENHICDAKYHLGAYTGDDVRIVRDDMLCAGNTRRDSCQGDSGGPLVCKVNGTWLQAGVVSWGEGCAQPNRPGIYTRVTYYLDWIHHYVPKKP

Row | Binder | % inhibition at 100 µM [%]
49 | B1 | 90.4
50 | B5 | 73.3
